Experimental data as given in publication doi:10.1101/2024.12.02.626348 (bioRxiv, 2024).

Experiments:
Assay in all cases: pull-down
His-Erk1 = His-Erk1 (human, UniProt P27361 1-379)
GST-Erk2 = GST-Erk2 (human, UniProt P28482 1-360)
GST-Erk1 = GST-Erk1 (human, UniProt P27361 1-379)
Sequence of GST-Erk1 (P27361 whole entry): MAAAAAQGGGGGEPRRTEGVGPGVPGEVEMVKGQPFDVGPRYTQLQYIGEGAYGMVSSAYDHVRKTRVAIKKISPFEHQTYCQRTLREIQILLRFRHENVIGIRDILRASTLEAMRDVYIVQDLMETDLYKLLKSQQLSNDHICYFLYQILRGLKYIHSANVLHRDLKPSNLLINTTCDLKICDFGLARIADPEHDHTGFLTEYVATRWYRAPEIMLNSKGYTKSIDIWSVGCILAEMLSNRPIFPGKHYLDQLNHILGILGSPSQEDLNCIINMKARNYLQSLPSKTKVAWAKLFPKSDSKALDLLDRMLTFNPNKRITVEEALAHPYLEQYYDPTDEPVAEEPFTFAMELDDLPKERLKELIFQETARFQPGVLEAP

Sequence of GST-Erk2 (P28482 whole entry): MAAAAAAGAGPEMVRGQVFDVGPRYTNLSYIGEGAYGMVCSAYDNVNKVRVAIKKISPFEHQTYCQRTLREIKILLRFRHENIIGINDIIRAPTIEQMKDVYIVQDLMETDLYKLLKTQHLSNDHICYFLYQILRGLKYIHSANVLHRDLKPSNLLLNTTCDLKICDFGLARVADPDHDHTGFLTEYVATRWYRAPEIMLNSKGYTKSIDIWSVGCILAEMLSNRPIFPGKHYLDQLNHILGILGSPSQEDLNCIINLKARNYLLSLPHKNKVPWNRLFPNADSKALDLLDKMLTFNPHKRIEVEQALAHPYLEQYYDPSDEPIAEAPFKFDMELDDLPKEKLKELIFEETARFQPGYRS
Sequence of His-Erk1 (P27361 whole entry): as the sequence (P27361 whole entry) above

binding result (His-Erk1) | binding result (GST-Erk2) | binding result (GST-Erk1) | Binder
binds |  |  | GST-Arl4D (natural protein, human, UniProt P49703 1-201, looked up) MGNHLTEMAPTASSFLPHFQALHVVVIGLDSAGKTSLLYRLKFKEFVQSVPTKGFNTEKIRVPLGGSRGITFQVWDVGGQEKLRPLWRSYTRRTDGLVFVVDAAEAERLEEAKVELHRISRASDNQGVPVLVLANKQDQPGALSAAEVEKRLAVRELAAATLTHVQGCSAVDGLGLQQGLERLYEMILKRKKAARGGKKRR
 | binds | binds | His-Arl4D (natural protein, human, UniProt P49703 1-201, looked up) MGNHLTEMAPTASSFLPHFQALHVVVIGLDSAGKTSLLYRLKFKEFVQSVPTKGFNTEKIRVPLGGSRGITFQVWDVGGQEKLRPLWRSYTRRTDGLVFVVDAAEAERLEEAKVELHRISRASDNQGVPVLVLANKQDQPGALSAAEVEKRLAVRELAAATLTHVQGCSAVDGLGLQQGLERLYEMILKRKKAARGGKKRR
